Test system: Escherichia coli TOP10
Experiment: shrunken log2 fold change of peptide-encoding DNA abundance (4.5 h post-induction vs induction); higher = less antimicrobial activity (less host growth inhibition)
Details: time post-induction: 4.5 h; library: site-saturation at positions 5, 18, 19, 20
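Also: peptides expressed intracellularly from a pBAD plasmid library in pooled LB shake-flask culture, induced with 0.3% L-arabinose, DNA abundance read by NGS, three biological replicates, DESeq2 with apeglm shrinkage.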

| Sequence | shrunken log2 fold change |
| --- | --- |
| RRIRERPPRLPRPRPRPWRPPRP | 0.0707 |
| RRIRNRPPRLPRPRPRPMGGPRP | 0.0264 |
| RRIRGRPPRLPRPRPRPVIPPRP | 0.000617 |
| RRIRMRPPRLPRPRPRPDNEPRP | 0.379 |
| RRIRRRPPRLPRPRPRPDCLPRP | -0.136 |
| RRIRVRPPRLPRPRPRPSEQPRP | -0.0241 |
| RRIRGRPPRLPRPRPRPCIIPRP | 0.191 |
| RRIRKRPPRLPRPRPRPTDDPRP | 1.01 |
| RRIRRRPPRLPRPRPRPLRAPRP | 1.17 |
| RRIRQRPPRLPRPRPRPGPLPRP | -0.035 |
| RRIRTRPPRLPRPRPRPGHDPRP | -0.108 |
| RRIRKRPPRLPRPRPRPNKIPRP | 0.0339 |
| RRIRGRPPRLPRPRPRPVWCPRP | 0.245 |
| RRIRIRPPRLPRPRPRPAREPRP | 0.604 |
| RRIRSRPPRLPRPRPRPHVQPRP | 0.132 |
| RRIRPRPPRLPRPRPRPHASPRP | -0.192 |
| RRIRERPPRLPRPRPRPFCTPRP | -0.304 |
| RRIRYRPPRLPRPRPRPDQHPRP | -0.13 |
| RRIRRRPPRLPRPRPRPCYVPRP | -0.583 |
| RRIRARPPRLPRPRPRPPTDPRP | 0.839 |
| RRIRRRPPRLPRPRPRPMLNPRP | -0.157 |
| RRIRHRPPRLPRPRPRPWSIPRP | 0.0612 |

| Sequence | shrunken log2 fold change |
| --- | --- |
| RRIRFRPPRLPRPRPRPADMPRP | -0.155 |
| RRIRTRPPRLPRPRPRPLMEPRP | 0.0859 |
| RRIRERPPRLPRPRPRPRSVPRP | -0.219 |
| RRIRSRPPRLPRPRPRPRHDPRP | 0.23 |
| RRIRFRPPRLPRPRPRPLIWPRP | -0.13 |
| RRIRMRPPRLPRPRPRPAMTPRP | 1.35 |
| RRIRLRPPRLPRPRPRPPFIPRP | -0.635 |
| RRIRWRPPRLPRPRPRPCYEPRP | -0.136 |
| RRIRTRPPRLPRPRPRPCKTPRP | -0.0173 |
| RRIRPRPPRLPRPRPRPNWYPRP | -0.338 |
| RRIRKRPPRLPRPRPRPKSNPRP | 0.112 |
| RRIRWRPPRLPRPRPRPRQKPRP | 0.0761 |
| RRIRNRPPRLPRPRPRPCRRPRP | -0.103 |
| RRIRHRPPRLPRPRPRPIMWPRP | -0.0163 |
| RRIRTRPPRLPRPRPRPGTCPRP | -0.00643 |
| RRIRLRPPRLPRPRPRPLKLPRP | -0.117 |
| RRIRYRPPRLPRPRPRPIQGPRP | -0.0804 |
| RRIRMRPPRLPRPRPRPFMKPRP | -0.0288 |
| RRIRHRPPRLPRPRPRPIYMPRP | -0.0111 |
| RRIRPRPPRLPRPRPRPQPMPRP | 0.225 |
| RRIRCRPPRLPRPRPRPHWGPRP | 0.143 |
| RRIRLRPPRLPRPRPRPGRPPRP | 0.526 |

| Sequence | shrunken log2 fold change |
| --- | --- |
| RRIRDRPPRLPRPRPRPVMLPRP | -0.0376 |
| RRIRTRPPRLPRPRPRPDLHPRP | -0.174 |
| RRIRMRPPRLPRPRPRPHAQPRP | -0.015 |
| RRIRNRPPRLPRPRPRPCHYPRP | 0.00673 |
| RRIRARPPRLPRPRPRPFWTPRP | 0.29 |
| RRIRNRPPRLPRPRPRPLEMPRP | -0.0434 |
| RRIRSRPPRLPRPRPRPCHAPRP | -0.0203 |
| RRIRWRPPRLPRPRPRPYDVPRP | -0.0559 |
| RRIRCRPPRLPRPRPRPTHCPRP | 0.363 |
| RRIRYRPPRLPRPRPRPLTTPRP | -0.404 |
| RRIRGRPPRLPRPRPRPRFDPRP | 0.382 |
| RRIRFRPPRLPRPRPRPPVTPRP | -0.132 |
| RRIRHRPPRLPRPRPRPNGDPRP | -0.0512 |
| RRIRQRPPRLPRPRPRPHWKPRP | -0.0878 |
| RRIRTRPPRLPRPRPRPAKLPRP | 0.108 |
| RRIRNRPPRLPRPRPRPTHVPRP | 0.216 |
| RRIRIRPPRLPRPRPRPLVGPRP | -0.0442 |
| RRIRMRPPRLPRPRPRPWNRPRP | -0.51 |
| RRIRVRPPRLPRPRPRPFIYPRP | -0.236 |
| RRIRGRPPRLPRPRPRPVAFPRP | 0.722 |
| RRIRCRPPRLPRPRPRPRRAPRP | 0.64 |
| RRIRSRPPRLPRPRPRPTAQPRP | 0.405 |

| Sequence | shrunken log2 fold change |
| --- | --- |
| RRIRNRPPRLPRPRPRPRKIPRP | 0.39 |
| RRIRKRPPRLPRPRPRPHNPPRP | -0.0541 |
| RRIRCRPPRLPRPRPRPRILPRP | -0.567 |
| RRIRVRPPRLPRPRPRPRIQPRP | -0.196 |
| RRIRHRPPRLPRPRPRPIYTPRP | -1.35 |
| RRIRLRPPRLPRPRPRPQVMPRP | -0.0202 |
| RRIRSRPPRLPRPRPRPLDRPRP | 0.218 |
| RRIRRRPPRLPRPRPRPCCPPRP | 0.467 |
| RRIRRRPPRLPRPRPRPNKHPRP | 0.117 |
| RRIRCRPPRLPRPRPRPRIFPRP | -0.16 |
| RRIRCRPPRLPRPRPRPHWLPRP | -0.311 |
| RRIRWRPPRLPRPRPRPRQFPRP | 0.0819 |
| RRIRTRPPRLPRPRPRPQTRPRP | 0.145 |
| RRIRERPPRLPRPRPRPVATPRP | 0.124 |
| RRIRWRPPRLPRPRPRPESRPRP | 0.323 |
| RRIRWRPPRLPRPRPRPNAFPRP | 0.0579 |
| RRIRNRPPRLPRPRPRPSCVPRP | -0.599 |
| RRIRFRPPRLPRPRPRPQWWPRP | -0.0312 |
| RRIRNRPPRLPRPRPRPINSPRP | -0.208 |
| RRIRFRPPRLPRPRPRPHPMPRP | -0.367 |
| RRIRGRPPRLPRPRPRPMQWPRP | -0.0537 |
| RRIRTRPPRLPRPRPRPRRMPRP | 0.15 |

| Sequence | shrunken log2 fold change |
| --- | --- |
| RRIRARPPRLPRPRPRPAIKPRP | 0.206 |
| RRIRNRPPRLPRPRPRPWRCPRP | -0.0792 |
| RRIRIRPPRLPRPRPRPWYTPRP | -0.122 |
| RRIRKRPPRLPRPRPRPGKFPRP | -0.174 |
| RRIRYRPPRLPRPRPRPTSFPRP | -0.255 |
| RRIRMRPPRLPRPRPRPYDHPRP | -0.141 |
| RRIRPRPPRLPRPRPRPQQCPRP | -0.462 |
| RRIRDRPPRLPRPRPRPLMIPRP | 0.072 |
| RRIRSRPPRLPRPRPRPWYSPRP | -0.257 |
| RRIRGRPPRLPRPRPRPDETPRP | 0.349 |
| RRIRARPPRLPRPRPRPHFAPRP | 0.733 |
| RRIRWRPPRLPRPRPRPLTCPRP | 0.0568 |
| RRIRMRPPRLPRPRPRPLSCPRP | 0.163 |
| RRIRQRPPRLPRPRPRPRIKPRP | 0.127 |
| RRIRERPPRLPRPRPRPEALPRP | 0.0535 |
| RRIRHRPPRLPRPRPRPGDDPRP | -0.044 |
| RRIRNRPPRLPRPRPRPSIWPRP | -0.474 |
| RRIRERPPRLPRPRPRPCINPRP | -0.0818 |
| RRIRGRPPRLPRPRPRPRCKPRP | 0.476 |
| RRIRQRPPRLPRPRPRPKWAPRP | -0.0411 |
| RRIRGRPPRLPRPRPRPPHPPRP | 0.643 |
